According to patent US6524820B1, “Lectins and coding sequences” (University of Georgia Research Foundation, Inc., priority 1997, dated 2003):
Entries after “also recorded” stand apart in the source; their conditions may differ.

B1: HL-13: human homolog of XL35 expressed in small intestine, SEQ ID NO:6 (protein)
chain: MLSMLRTMTRLCFLLFFSVATSGCSAAAASSLEMLSREFETCAFSFSSLPRSCKEIKERCHSAGDGLYFLRTKNGVVYQTFCDMTSGGGGWTLVASVHENDMRGKCTVGDRWSSQQGNKADYPEGDGNWANYNTFGSAEAATSDDYKNPGYYDIQAKDLGIWHVPNKSPMQHWRNSALLRYRTNTGFLQRLGHNLFGIYQKYPVKYRSGKCWNDNGPAIPVVYDFGDAKKTASYYSPYGQREFVAGFVQFRVFNNERAANALCAGIKVTGCNTEHHCIGGGGFFPQGKPRQCGDFSAFDWDGYGTHVKSSCSREITEAAVLLFYR
B2: XL35: soluble, calcium-dependent lectin from Xenopus laevis oocytes, SEQ ID NO:2 (protein)
chain: MLVHILLLLVTGGLSQSCDPVVIVASKNMVKQLDCDKFRNCKEIKDSNEEAQDGIYTLTSPDGISYQTFCDMTTNGGGWTLVASVHENNMAGKCTIGDRWSSQQGNRADYPEGDGNWANYNTFGSAGGATSDDYKNPGYYDIEAYNLGVWHVPNKTPLSVWRNSSLQRYRTTDGILFKHGGNLFSLYRIYPVKYGIGSCSKDSGPTVPVVYDLGSANLTASFYSPGFRSQFTPGYIQFRPINTEKAALALCPGMKMESCNVEHVCIGGGGYFPEADPRQCGDFAAYDFNGYGTKKFNSAGIEITEAAVLLFYL
B3: HL-3: human calcium-dependent lectin family member, homolog of XL35, SEQ ID NO:4 (protein)
chain: MNQLSFLLFLIATTRGWSTDEANTYFKEWTCSSSPSLPRSCKEIKDECPSAFDGLYFLRTENGVIYQTFCDMTSGGGGWTLVASVHENDMRGKCTVGDRWSSQQGSKADYPEGDGNWANYNTFGSAEAATSDDYKNPGYYDIQAKDLGIWHVPNKSPMQHWRNSSLLRYRTDTGFLQTLGHNLFGIYQKYPVKYGEGKCWTDNGPVIPVVYDFGDAQKTASYYSPYGQREFTAGFVQFRVFNNERAANALCAGMRVTGCNTEHHCIGGGGYFPEASPQQCGDFSGFDWSGYGTHVGYSSSREITEAAVLLFYR

How the values were obtained:
[1] = Melibiose affinity chromatography (binding to immobilized melibiose); settings: in the presence of Ca2+
Method: The rabbit, mouse, Xenopus laevis heart extracts, and various in vitro translation products were applied to a column of immobilized melibiose-agarose to analyze carbohydrate binding specificity. The heart extracts of rabbit, mouse, and Xenopus laevis were prepared by the method as described above and applied to a melibiose affinity column (total volume, 1 ml on Econo column) that was pre-equilibrated with TCS. After washing with 10 ml of TCS containing 0.3 M sucrose, bound protein was eluted with TCS containing 0.1 M EDTA. One ml of each fraction was collected and subjected to western blotting followed by 4-15% SDS-PAGE. Each 30 μl of in vitro translation product was diluted with 2×TCS (1:1) and applied to the melibiose column using same method. After separation of fractions on 4-15% SDS-PAGE, the results were analyzed by autoradiography.

[2] = tested on: trypsinized, glutaraldehyde-fixed rabbit erythrocytes; assay: Erythrocyte agglutination assay; format: cell-based
Method: The assay was performed essentially as described using trypsinized, glutaraldehyde-fixed rabbit erythrocytes [Barondes and Roberson (1987) Methods Enzymol. 138, 516-20] in TCS buffer (10 mM Tris, pH 7.6, 10 mM CaCl2, 150 mM NaCl). To compare the agglutination properties of both the purified and recombinant lectins, the two lectins were assayed under similar conditions. Because the eluted recombinant lectin was in 8 M urea, a solution of purified non-recombinant lectin was also brought to 8 M with a concentrated urea solution. The agglutination assay was performed using […] of either recombinant or native XL35 lectin in […] TCS and 8 M urea was added to wells of a 96-well microtiter plate. Next, […] of TCS alone or TCS containing 0.4 M EDTA or 1.0 M melibiose or 1.0 M sucrose was added to the wells and mixed with the lectin solution. To this solution, 50 ml of a 1:1 suspension of trypsinized, glutaraldehyde-fixed rabbit erythrocytes in TCS was added and the contents of the wells were mixed by trituration. The final concentration of urea in the wells was 2 M, while that of EDTA was 0.10 M and that of melibiose and sucrose were 0.25 M. Agglutination activity was scored after 1.5 hr. at room temperature using an inverted microscope on low power. […]

[3] = Solubility of recombinant lectins in urea; format: physicochemical; settings: bacterially expressed recombinant lectin
Method: Expression of human HL-3 and HL-13 coding sequences was performed using the same method for expression of XL-35. […] Purification and renaturation carried out as for XL35.

Molecule	binding to immobilized melibiose [1]	agglutination activity retained relative to assay in TCS alone ([2]; after 1.5 hr in TCS plus 2 M urea)	agglutination of trypsinized, fixed rabbit erythrocytes ([2]; in 2 M urea)	concentration of urea required for solution [3] [M]
B1	no in vitro translation products of HL-3 and HL-13 bound; also recorded: do not appear to bind specifically			
B2		25-50%	active	2
B3	no in vitro translation products of HL-3 and HL-13 bound; also recorded: do not appear to bind specifically			
